Several values for one entry are separate records, joined by “and”; a condition that tells them apart may be missing. Equal values may be shown once.

These results are taken from FireProtDB (doi:10.1016/s0301-4622(00)00161-7).

For this data set the following is noted: pH 7, Sodium phosphate 10 mM, whole UniProt chain shown.
The mark [1] stands for this setting: Homo sapiens, 20 °C, Thermal, DSC.

B1: Gamma-crystallin S wild type, P22914 (protein)
chain: MSKTGTKITFYEDKNFQGRRYDCDCDCADFHTYLSRCNSIKVEGGTWAVYERPNFAGYMYILPQGEYPEYQRWMGLNDRLSSCRAVHLPSGGQYKIQIFEKGDFSGQMYETTEDCPSIMEQFHMREIHSCKVLEGVWIFYELPNYRGRQYLLDKKEYRKPIDWGAASPAVQSFRRIVE
On to B1, for which the “denaturant midpoint (higher = more stable)” value is, setting by setting: (Homo sapiens, 20 °C, GdnHCl, CD) 1.9 M; (Homo sapiens, 20 °C, GdnHCl, Fluorescence) 2.6 M and 2.5 M; (Homo sapiens, 20 °C, Urea, CD) 7 M; (Homo sapiens, 20 °C, Urea, Fluorescence) 8 M and 7.6 M. Further, the “heat capacity change of unfolding” value runs as follows: under setting [1], 1.79 kcal/mol/K and 0.84 kcal/mol/K and 1.08 kcal/mol/K; (Homo sapiens, Thermal, DSC) 1.79 kcal/mol/K and 0.84 kcal/mol/K and 1.08 kcal/mol/K. In addition, the unfolding free energy under setting [1] is 20.1 kcal/mol and 10 kcal/mol and 11.5 kcal/mol. For the same protein, the “unfolding enthalpy (calorimetric)” value (Homo sapiens, Thermal, DSC) is 179 kcal/mol and 90.8 kcal/mol and 103 kcal/mol.

B2: Gamma-crystallin S wild type, P06504 (protein)
chain: MSKAGTKITFFEDKNFQGRHYDSDCDCADFHMYLSRCNSIRVEGGTWAVYERPNFAGYMYILPRGEYPEYQHWMGLNDRLSSCRAVHLSSGGQYKLQIFEKGDFNGQMHETTEDCPSIMEQFHMREVHSCKVLEGAWIFYELPNYRGRQYLLDKKEYRKPVDWGAASPAVQSFRRIVE
For B2, the “denaturant midpoint (higher = more stable)” value is 2.1 M and 1.8 M (Bos taurus, 20 °C, GdnHCl, Fluorescence); 7 M and 6.6 M (Bos taurus, 20 °C, Urea, Fluorescence).
